In patent publication US5578288, “Metal-binding targeted polypeptide constructs” (Cytogen Corporation, dated 1996):
Blank lines part the entries; values can stand above or below the binder they belong to. Where no end group is shown, it is not given here.

Tests used:
[1] = target: receptor on murine NIH-3T3 fibroblast cells (ATCC No. CCL92) to which 125I-GRP binds (murine, UniProt P21729); assay: competition with 0.45 pM 125I-GRP on NIH-3T3 cells, filter assay
Procedure: Each tube was charged with 4 ×10^4 cells. […] Three control tubes with no cells or competitor were prepared for measurement of total counts added.
The samples were incubated for 30 min at RT. The contents of each tube were transferred into the wells of a 96-well filter bottom plate (Millipore Multiscreen, Arlington Heights, Mass.) and filtered under moderate vacuum (water aspirator). Each filter was washed three times by filling each well with ice cold PBS, Ph 7.4, 0.1% BSA. The plate was allowed to dry. Dried filters were placed into gamma-counter tubes (12×75 mm glass). The radioactivity on each filter and in the control tubes was counted using a LKB gamma counter. The bound/total added for each assay tube was calculated.

[2] = target: receptor on murine NIH-3T3 fibroblast cells (ATCC No. CCL92) to which 125I-GRP binds (murine) (UniProt P21729); assay: competition with […] 125I-GRP on NIH-3T3 cells; inhibitor at 10 nM
[3] = target: receptor on murine NIH-3T3 fibroblast cells (ATCC No. CCL92) to which 125I-GRP binds (murine) (UniProt P21729); assay: competition with […] 125I-GRP on NIH-3T3 cells; inhibitor at 100 nM
[4] = target: receptor on murine NIH-3T3 fibroblast cells (ATCC No. CCL92) to which 125I-GRP binds (murine) (UniProt P21729); assay: competition with […] 125I-GRP on NIH-3T3 cells; inhibitor at 1 nM

Sequence of receptor on murine NIH-3T3 fibroblast cells (ATCC No. CCL92) to which 125I-GRP binds (murine) (P21729 whole entry): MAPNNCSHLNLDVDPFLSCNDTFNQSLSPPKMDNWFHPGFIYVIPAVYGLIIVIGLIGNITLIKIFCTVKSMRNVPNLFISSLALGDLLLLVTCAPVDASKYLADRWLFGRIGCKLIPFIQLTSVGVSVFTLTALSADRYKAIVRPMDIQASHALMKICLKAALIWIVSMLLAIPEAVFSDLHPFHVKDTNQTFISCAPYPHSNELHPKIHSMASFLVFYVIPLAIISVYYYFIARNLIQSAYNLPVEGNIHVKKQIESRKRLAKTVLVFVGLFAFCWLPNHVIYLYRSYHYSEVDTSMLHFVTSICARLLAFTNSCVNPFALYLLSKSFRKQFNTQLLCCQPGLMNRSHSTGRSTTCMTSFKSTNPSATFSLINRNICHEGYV

IC50 [1]: 10.6 nM
B1: Benzoic acid bis-thiourea derived from Neuromedin-C, compound 3 (peptide)
peptide: GNHWAVGHLM-NH2
modifications: not fully specified (N-terminus); also: dimer: two chains on one 3,5-disubstituted benzoic acid via N-terminal thioureas

IC50 [1]: 43.3 nM
B2: Benzoic acid bis-thiosemicarbazide derived from N-acetyl-Neuromedin C-hydrazide, compound 6 (peptide)
peptide: Ac-GNHWAVGHLM
modifications: not fully specified (C-terminus); also: dimer: two chains on one 3,5-disubstituted benzoic acid via C-terminal thiosemicarbazides

% BOUND (of I-125-GRP) [2]: 1.7% | % INHIBITION [2]: 71% | AVG CPM BOUND (of I-125-GRP) [2]: 1130 CPM | % BOUND (of I-125-GRP) [3]: 1.4% | % INHIBITION [3]: 76% | AVG CPM BOUND (of I-125-GRP) [3]: 940 CPM | % BOUND (of I-125-GRP) [4]: 2.2% | % INHIBITION [4]: 63% | AVG CPM BOUND (of I-125-GRP) [4]: 1420 CPM
Binder: H-GNHWAVGHLM-NH2 [Neuromedin C (NMc, H-Gly-Asn-His-Trp-Ala-Val-Gly-His-Leu-Met-NH2)]
